In patent publication US9963506B2, “Human-mouse chimeric anti-CD147 antibody with non-fucosylated glycosylation” (Fourth Military Medical University, priority 2015, dated 2018):

Molecular target: T1, CD147^+ A549 cells (Homo sapiens, UniProt P35613)
T1 construct: endogenous in cells; host or cells: A549 (human lung cancer cell line)
T1 sequence (P35613 22-269 isoform P35613-2 limits assumed): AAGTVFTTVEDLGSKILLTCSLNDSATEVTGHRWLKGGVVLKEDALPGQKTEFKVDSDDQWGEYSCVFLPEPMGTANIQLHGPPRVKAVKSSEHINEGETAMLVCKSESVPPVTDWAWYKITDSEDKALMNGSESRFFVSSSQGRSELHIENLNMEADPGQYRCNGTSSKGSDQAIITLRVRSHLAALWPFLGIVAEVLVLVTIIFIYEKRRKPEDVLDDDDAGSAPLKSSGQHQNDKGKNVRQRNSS
Assay: Antigen-binding activity by flow cytometry
Experimental: The antibody concentration is 0.001 μg/mL, 0.01 μg/mL, 0.1 μg/mL, 1 μg/ml and 10 μg/mL, respectively.
A549 cells (10^6 cells) were incubated with the Metuzumab (HcHAb18) and cHAb18 antibody, respectively, in PBS with 0.1% BSA at 4° C. for 1 h. After three washes in PBS with 0.1% BSA, cells were incubated with the FITC-conjugated Rabbit anti-Human IgG Fc Secondary Antibody (Pierce) at 4° C. in the dark for 45 min. Cells were then washed three times and suspended in PBS for analysis using a FACS Calibur flow cytometer (BD, New Jersey, U.S.). Relative antigen expression is reported as median fluorescence intensity (MFI).

cHAb18: human-mouse chimeric anti-CD147 antibody, variable domains from HAb18, human IgG1 constant domains, fucosylated (CHO K1)
CD147-binding ability, Metuzumab compared with cHAb18 (FIG. 4): similar | Binding to CD147^+ A549 cells (FIG. 4, 0.001-10 μg/mL): bound
